From US20030180296A1 (Human Genome Sciences, published 2003)
One block for each binder: values may come before it.

Legend:
TR7-Fc fusion protein [1] = target: T1, TR7-Fc fusion protein (human, UniProt O14763 52-184); test: competition ELISA, inhibition of biotinylated TRAIL binding to captured TR7-Fc; first of two lots
T1 construct: also called TR7-Fc receptor; TRAILR2; not shown: Fc region
Description: (§1) Goat anti-human Fc is diluted to 0.1 micrograms/ml in coating buffer. An Immulon 4 microplate is coated with 100 microliters per well of the Goat anti-human Fc solution and incubated overnight at 4° C. The coating solution is decanted from the plate, and blocking solution is dispensed at 200 microliters per well. The plate is incubated at room temperature for 1 hour. After the 1 hour incubation period, the blocking solution is decanted from the plate and 1 microgram/mL of TR7-Fc is dispensed at 100 microliters/well and incubated for 2 hours at room temperature. After the incubation, the plate is washed five times manually using a Wheaton manifold.
(§2) Antibodies corresponding to scFvs of the present invention are (previously) prepared in a low binding dilution plate using diluent. The antibodies are prepared in duplicate and are diluted from the stock concentration with 2.5 fold dilutions for the 7 subsequent wells. If a purified form of the antibody is available, the starting concentration is 5 micrograms/mL. The positive control (TR7-Fc) is diluted from 5 micrograms/mL. 100 microliters is transferred into the ELISA plate and pre-incubated for 30 minutes at room temperature. […]
(§3) After the one-hour incubation, the plate is decanted and washed with PBST five times and blotted. […] The plate is immediately read at 450 nm using the spectrometer from Molecular Devices.

TR7-Fc fusion protein [2] = target: T1, TR7-Fc fusion protein; test: competition ELISA, inhibition of biotinylated TRAIL binding to captured TR7-Fc; second of two lots
Description: as §1, §2, §3

TR7-Fc fusion protein [3] = target: T1, TR7-Fc fusion protein; test: SPR (BIAcore 2000), TR7-Fc amine-coupled on CM5 chip, 1:1 Langmuir model, mean of three experiments; first lot
Description: (§4) TR7-Fc and TR2-Fc were immobilized on individual flow cells of a BIAcore CM5 sensor chip (BIAcore, Cat # BR-1000-14). Amine coupling (BIAcore, Cat # BR-1000-50) was used to covalently bind each receptor to the dextran matrix on the sensor chip. The optimal pH for this coupling was analyzed using preconcentration experiments ranging from pH 4-7 and was determined to be pH 4.0 based on the slope of the binding. The actual coupling was performed using the manual injection mode. A target level of 200 relative units (RU) was set as the goal for both flow cells. A response of 1000 RU correlates to a change in surface concentration of about 1 ng/mm² for proteins. The molecular weight of the TR7 and TR2 fusion proteins was nearly identical. The concentration of both receptors for immobilization was 5 μg/ml in 10 mM acetate, pH 4.0 (BIAcore, Cat # BR-1003-49). The entire experiment was performed at a flow rate of 5 μL/min. Contact time for the N-ethyl-N′-(3-dimethylaminoprolpyl)carbodiimide hydrochloride/Ethanolamine hydrochloride-NaOH, pH 8.5 (EDC/NHS) injection was 3 minutes. The ethanolamine was injected for 3 minutes.
(§5) Analysis of CM005G08 kinetics was performed using the BIAcore 2000 instrument with the 2000 control software, version 3.1.1. […] The off rate of CM005G08 was determined by washing the complex in the presence of HBS-EP buffer for 10 minutes. […]

TR7-Fc fusion protein [4] = target: T1, TR7-Fc fusion protein; test: SPR (BIAcore 2000), TR7-Fc amine-coupled on CM5 chip, 1:1 Langmuir model, mean of three experiments; second lot
Description: as §4, §5

TR7-Fc fusion protein [5] = target: T1, TR7-Fc fusion protein; test: competition ELISA, inhibition of biotinylated TRAIL binding to captured TR7-Fc; unlabelled TRAIL as competitor
Description: as §1, §2, §3

IC50 (TR7-Fc fusion protein [1]): 5.3 nM
IC50 (TR7-Fc fusion protein [2]): 6.89 nM
Kd (TR7-Fc fusion protein [3]): 0.25 nM
koff (TR7-Fc fusion protein [3]): 0.00266 s⁻¹
Kd (TR7-Fc fusion protein [4]): 0.33 nM
koff (TR7-Fc fusion protein [4]): 0.00268 s⁻¹
B1: whole IgG1 antibody comprising the VH and VL domains of the CM005G08 scFv (antibody, V domains shown)
VH: EVQLVQSGGGVERPGGSLRLSCAASGFTFDDYGMSWVRQAPGKGLEWVSGINWNGGSTGYADSVKGRVTISRDNAKNSLYLQMNSLRAEDTAVYYCAKILGAGRGWYFDLWGKGTTVTVSS
VL: SSELTQDPAVSVALGQTVRITCQGDSLRSYYASWYQQKPGQAPVLVIYGKNNRPSGIPDRFSGSSSGNTASLTITGAQAEDEADYYCNSRDSSGNHVVFGGGTKLTVLG
notes: 3.75 ug/mL = 25 nM implies a whole IgG; also called CM005G08 (IgG1 format); anti-TR7 antibody

IC50 (TR7-Fc fusion protein [5]): 1.77 nM
B2: TRAIL (ligand)
chain: TSEETISTVQEKQQNISPLVRERGPQRVAAHITGTRGRSNTLSSPNSKNEKALGRKINSWESSRSGHSFLSNLHLRNGELVIHEKGFYYIYSQTYFRFQEEIKENTKNDKQMVQYIYKYTSYPDPILLMKSARNSCWSKDAEYGLYSIYQGGIFELKENDRIFVSVTNEHLIDMDHEASFFGAFLVG
notes: also called soluble TRAIL ligand; AIM-I
